Legend:
[1] = target: human whole saliva (human); experiment: ELISA: 1:2 dilution of whole saliva coated, 65 kDa protein added, detected with rat anti-65 kDa serum
[2] = target: human salivary α-amylase (Type IX A, Sigma Chemical Co.) (human); experiment: ELISA: amylase (10.0 µg/ml) coated, 65 kDa protein added, detected with rat anti-65 kDa serum
Chain of human salivary α-amylase (Type IX A, Sigma Chemical Co.) (human) (P0DUB6 16-511): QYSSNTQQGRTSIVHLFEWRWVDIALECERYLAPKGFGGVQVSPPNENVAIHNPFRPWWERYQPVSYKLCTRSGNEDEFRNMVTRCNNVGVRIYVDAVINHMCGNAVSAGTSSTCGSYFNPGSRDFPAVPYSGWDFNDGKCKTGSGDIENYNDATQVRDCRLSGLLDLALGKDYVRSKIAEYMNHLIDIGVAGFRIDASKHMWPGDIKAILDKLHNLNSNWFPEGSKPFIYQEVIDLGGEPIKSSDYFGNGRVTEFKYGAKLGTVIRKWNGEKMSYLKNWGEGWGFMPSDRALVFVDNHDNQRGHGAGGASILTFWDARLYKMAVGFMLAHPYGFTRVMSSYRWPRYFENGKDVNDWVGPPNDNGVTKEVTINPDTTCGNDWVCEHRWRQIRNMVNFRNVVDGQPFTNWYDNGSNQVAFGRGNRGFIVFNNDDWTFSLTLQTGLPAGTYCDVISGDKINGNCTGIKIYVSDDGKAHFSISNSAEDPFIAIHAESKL

Question: How did the O.D. (ELISA absorbance at 490 nm) [1] turn out when “purified 65 kDa fimbrial protein of S. mutans A32-2 (serotype c) (enzyme)” was run?
Answer: The O.D. (ELISA absorbance at 490 nm) was 0.26 O.D.

Question: What about the O.D. (ELISA absorbance at 490 nm) [2] of the same substance?
Answer: The O.D. (ELISA absorbance at 490 nm) was 0.25 O.D.

Source: patent publication US20050207995A1
